The test addresses - (UniProt P08069). In words: ELISA. To be noted: scFv. For orientation: An ELISA detects its analyte on a solid surface through an enzyme-linked reagent.

For orientation: EC50 means the concentration that produces a half-maximal response. Read a low EC50 as greater potency.

In turn, “Teprotumumab scFv mutant into which the consensus sequences were introduced (H16G, L60D, and L85D)” gave an EC50 of 0.024 µM.

The values above are taken from patent US20260204353A1.
